Assay [1] concerns the target T1, CD27蛋白 (Homo sapiens (Human), UniProt P26842 20-260).
T1 construct: also called CHO-K1-CD27细胞; Jurkat-NFAT-lucia-CD27细胞
T1 sequence: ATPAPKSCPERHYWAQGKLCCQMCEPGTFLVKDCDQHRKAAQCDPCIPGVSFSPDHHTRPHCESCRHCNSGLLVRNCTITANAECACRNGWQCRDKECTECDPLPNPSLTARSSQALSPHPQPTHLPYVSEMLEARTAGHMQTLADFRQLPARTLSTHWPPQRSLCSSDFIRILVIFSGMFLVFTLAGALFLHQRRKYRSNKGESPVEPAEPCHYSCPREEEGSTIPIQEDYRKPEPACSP
The assay is described as follows: flow cytometry on CHO-K1-CD27 cells, antibody at 0.1-300 μg/mL, Alexa-647 anti-human Fc secondary antibody. In general terms: A flow cytometer gives signals particle by particle.

The target in assay [2] is T2, Nectin-4蛋白 (Homo sapiens (Human), UniProt Q96NY8 32-510).
T2 construct: also called PVRL4; CHO-K1-Nectin-4细胞
T2 sequence: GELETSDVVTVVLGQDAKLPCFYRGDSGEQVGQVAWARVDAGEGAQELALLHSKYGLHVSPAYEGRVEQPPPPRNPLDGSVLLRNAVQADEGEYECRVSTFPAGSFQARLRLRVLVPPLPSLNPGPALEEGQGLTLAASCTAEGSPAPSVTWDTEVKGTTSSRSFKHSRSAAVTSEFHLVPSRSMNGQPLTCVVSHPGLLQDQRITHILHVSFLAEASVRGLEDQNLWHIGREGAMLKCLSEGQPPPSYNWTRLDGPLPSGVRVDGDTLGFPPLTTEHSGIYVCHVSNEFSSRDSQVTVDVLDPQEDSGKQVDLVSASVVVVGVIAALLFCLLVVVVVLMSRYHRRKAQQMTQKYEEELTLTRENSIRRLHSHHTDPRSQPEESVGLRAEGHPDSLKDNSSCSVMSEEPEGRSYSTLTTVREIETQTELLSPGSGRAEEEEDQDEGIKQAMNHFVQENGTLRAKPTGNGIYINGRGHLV
As to the kind of experiment: flow cytometry on CHO-K1-Nectin-4 cells, antibody at 0.1-300 μg/mL, Alexa-647 anti-human Fc secondary antibody.

The text below walks through data of patent publication CN115368463A (HEFEI TIANGANG IMMUNOLOGY PHARMACEUTICAL CO LTD, dated 2022).

B1: 抗体CD27×Nectin-4 (bispecific antibody, human IgG1, kappa, L234A L235A)
scFv: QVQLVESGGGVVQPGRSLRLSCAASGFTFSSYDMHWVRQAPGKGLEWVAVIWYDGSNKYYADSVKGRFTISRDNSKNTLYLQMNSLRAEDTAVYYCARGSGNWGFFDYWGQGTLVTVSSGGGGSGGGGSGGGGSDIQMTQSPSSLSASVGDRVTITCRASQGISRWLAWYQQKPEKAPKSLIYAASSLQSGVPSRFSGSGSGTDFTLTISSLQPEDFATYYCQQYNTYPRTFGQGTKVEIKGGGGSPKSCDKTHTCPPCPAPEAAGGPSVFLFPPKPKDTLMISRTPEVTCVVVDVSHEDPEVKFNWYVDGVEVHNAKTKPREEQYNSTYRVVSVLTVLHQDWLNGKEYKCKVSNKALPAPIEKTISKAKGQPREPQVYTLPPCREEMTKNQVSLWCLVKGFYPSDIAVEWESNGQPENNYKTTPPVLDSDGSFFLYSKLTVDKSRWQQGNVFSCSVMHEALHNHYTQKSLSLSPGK
heavy: EVQLVESGGGLVQPGGSLRLSCAASGFTFSSYNMNWVRQAPGKGLEWVSYISSSSSTIYYADSVKGRFTISRDNAKNSLSLQMNSLRDEDTAVYYCARAYYYGMDVWGQGTTVTVSSASTKGPSVFPLAPSSKSTSGGTAALGCLVKDYFPEPVTVSWNSGALTSGVHTFPAVLQSSGLYSLSSVVTVPSSSLGTQTYICNVNHKPSNTKVDKKVEPKSCDKTHTCPPCPAPEAAGGPSVFLFPPKPKDTLMISRTPEVTCVVVDVSHEDPEVKFNWYVDGVEVHNAKTKPREEQYNSTYRVVSVLTVLHQDWLNGKEYKCKVSNKALPAPIEKTISKAKGQPREPQVCTLPPSREEMTKNQVSLSCAVKGFYPSDIAVEWESNGQPENNYKTTPPVLDSDGSFFLVSKLTVDKSRWQQGNVFSCSVMHEALHNHYTQKSLSLSPGK
light: DIQMTQSPSSVSASVGDRVTITCRASQGISGWLAWYQQKPGKAPKFLIYAASTLQSGVPSRFSGSGSGTDFTLTISSLQPEDFATYYCQQANSFPPTFGGGTKVEIKRTVAAPSVFIFPPSDEQLKSGTASVVCLLNNFYPREAKVQWKVDNALQSGNSQESVTEQDSKDSTYSLSSTLTLSKADYEKHKVYACEVTHQGLSSPVTKSFNRGEC
notes: also called CD27×Nectin-4抗体; CD27×Nectin-4双特异抗体
Regarding B1, the binding result in assay [1] and in assay [2] was “binds” throughout.
